Measurements: PMC7896311, “Structure of the SARS-CoV-2 RNA-dependent RNA polymerase in the presence of favipiravir-RTP”

Target: nsp12 (RNA-dependent RNA polymerase);nsp7;nsp8 (SARS-CoV-2;SARS-CoV-2;SARS-CoV-2, UniProt P0DTD1;P0DTD1;P0DTD1 4393-5324;3860-3942;3943-4140, ||)
Assay: cryo-EM structure (2.5 A)
Details: protein: recombinant;recombinant;recombinant; tags: C-terminal TEV site-double StrepII on the nsp5-nsp7-nsp8-nsp12 polyprotein;;; copies: 1;1;2

B1: primer:template RNA duplex (dsRNA)
RNA 1: CAGUGCUAUGUGAGAUUAAGUUAU
RNA 2: UUUUUCAUAACUUAAUCUCACAUAGCACUG
binding result: binds
